From IntAct's records for PubMed 24793649

B1: CRISPR-associated endonuclease Cas1 (Escherichia coli (strain K12)), Q46896 (parent)
chain: MTWLPLNPIPLKDRVSMIFLQYGQIDVIDGAFVLIDKTGIRTHIPVGSVACIMLEPGTRVSHAAVRLAAQVGTLLVWVGEAGVRVYASGQPGGARSDKLLYQAKLALDEDLRLKVVRKMFELRFGEPAPARRSVEQLRGIEGSRVRATYALLAKQYGVTWNGRRYDPKDWEKGDTINQCISAATSCLYGVTEAAILAAGYAPAIGFVHTGKPLSFVYDIADIIKFDTVVPKAFEIARRNPGEPDREVRLACRDIFRSSKTLAKLIPLIEDVLAAGEIQPPAPPEDAQPVAIPLPVSLGDAGHRSS
partner: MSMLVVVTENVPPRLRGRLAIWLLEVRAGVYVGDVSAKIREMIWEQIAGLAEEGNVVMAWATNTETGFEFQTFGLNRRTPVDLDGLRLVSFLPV

Variants of: B1
Conditions: with cas2_ecoli ygbF

| effect of a mutation on the interaction | Variant |
| --- | --- |
| disrupting interaction strength | MTWLPLNPIPLKDRVSMIFLQYGQIDVIDGAFVLIDKTGIRTHIPVGSVACIMLEPGTRVSHAAVRLAAQVGTLLVWVGEAGVRVYASGQPGGARSDKLLYQAKLALDEDLRLKVVRKMFELRFGEPAPARRSVEQLRGIEGSRVRATYALLAKQYGVTWNGRRYDPKDWEKGDTINQCISAATSCLYGVTEAAILAAGYAPAIGFVHTGKPLSFVYDIADIIKFDTVVPKAFEIARRNPGEPDREVRLACEDIFRSSKTLAKLIPLIEDVLAAGEIQPPAPPEDAQPVAIPLPVSLGDAGHRSS [R252E] |
